Where a chain is given by its changes, count along the chain named. Each block holds one molecule with its values, some of them ahead of it.
What was measured:
[1] = molecular target: human CD1a expressed on cells (with human β2M) (human) (UniProt P06126); test: flow cytometry of ear skin cells of a CD1a transgenic mouse given isotype control (row 'CD1a : iso'), HI149 staining; the WT mouse panel prints 0
[2] = molecular target: human CD1a expressed on cells (with human β2M) (human) (UniProt P06126)
[3] = molecular target: human CD1a expressed on cells (with human β2M) (human) (UniProt P06126); test: flow cytometry of ear skin cells of a CD1a transgenic mouse given antibody 116 100 µg i.p. on days 0, 2 and 4 (row 'CD1a : OX116'), HI149 staining on day 5; the cloud lies on the lower edge of the gate
[4] = molecular target: human CD1a expressed on cells (with human β2M) (human) (UniProt P06126); test: flow cytometry of ear skin cells of a CD1a transgenic mouse given isotype control (panel 'CD1a : iso'), SK9 staining; the WT mouse panel prints 1.30
[5] = molecular target: human CD1a expressed on cells (with human β2M) (human) (UniProt P06126); test: flow cytometry of ear skin cells of a CD1a transgenic mouse given antibody 116 100 µg i.p. on days 0, 2 and 4 (panel 'CD1a : OX116'), SK9 staining on day 5
[6] = molecular target: human CD1a expressed on cells (with human β2M) (human, UniProt P06126 17-327; P61769 21-119); test: cell-based or functional assay
[7] = molecular target: T1, human CD1c expressed on HEK-293 cells (with human β2M) (human, UniProt P29017 18-333; P61769 21-119); test: flow cytometry, transfected HEK-293 cells
T1 construct: whole, on cells; also called HEK-CD1c

[8] = molecular target: T2, human CD1d expressed on HEK-293 cells (with human β2M) (human, UniProt P15813 20-335; P61769 21-119); test: flow cytometry, transfected HEK-293 cells
T2 construct: whole, on cells; also called HEK-CD1d

[9] = molecular target: T3, human CD1b expressed on HEK-293 cells (with human β2M) (human, UniProt P29016 18-333; P61769 21-119); test: flow cytometry, transfected HEK-293 cells
T3 construct: whole, on cells; also called HEK-CD1b

Molecule: HI149 (antibody)
CD1a+ gate (percent of plotted cells) [1]: 82.2%
IC50 of inhibition of the polyclonal T cell IFNγ ELISpot response to CD1a-K562 (n=6 donors) [2]: 1.14 µg/mL
CD1a+ gate (percent of plotted cells) [3]: 46.6%

B1: 110 (VR12112) (antibody, V domains shown)
VH: QSVEESGGRLVTPGTPLTLTCTVSGFSLSSYAMIWVRQAPGKGLEWIGIINSSDNTHYATWAKGRFTISKTSTTVDLKITSPTTEDTATYFCARDPYDYGYGWYFDLWGPGTLVTVSS
VL: AQVLTQTPSPVSAAVGGTVTINCQASQSVFNNKNLAWYQQKPGQPPKLLIYKASTLASGVSSRFKGSGSGTQFALTISGVQCDDAATYYCQGEFSCSSTDCVTFGGGTEVVVK
IC50 of inhibition of the polyclonal T cell IFNγ ELISpot response to CD1a-K562 (n=6 donors) [6]: 0.155 µg/mL
binding result [7]: no binding (tested: up to 100 µg/ml)
binding result [8]: no binding (tested: up to 100 µg/ml)
binding result [9]: no binding (tested: up to 100 µg/ml)

B2: 111 (VR12113) (antibody, V domains shown)
VH: QSVEESGGRLVTPGTPLTLTCTASGFSLSTYAMSWVRQAPGKGLEWIGIISSSGSTYYASWAKGRFTISKTSTTVDLKITSPTTEDTATYFCARETWYWLDLWGQGTLVTVSS
VL: AVEMTQTPASVSAAVGGTVTINCQASEDIYSNLAWYQQKPGQPPKLLIYGASTLASGVPSRFKGSGSGTEYTLTISGVQCDDAATYYCQCAYDSSSYGTPFGGGTEVVVK
IC50 of inhibition of the polyclonal T cell IFNγ ELISpot response to CD1a-K562 (n=6 donors) [6]: 1.04 µg/mL
binding result [7]: no binding (tested: up to 100 µg/ml)
binding result [8]: no binding (tested: up to 100 µg/ml)
binding result [9]: no binding (tested: up to 100 µg/ml)

B3: 77A (VR11851) (antibody, V domains shown)
VH: QSVEESGGRLVTPGTPLTLTCTVSGFSLSSYAMSWVRQAPGKGLEWIGIISSSGTTYYASWAKGRFTISKTSTTVDLKITSPTTEDTATYFCARVDYYSSGWGGLWGPGTLVTVSS
VL: B2 VL with V11M, N22K, A91T, S94T, T99N, P100T, V107M, K110E
IC50 of inhibition of the polyclonal T cell IFNγ ELISpot response to CD1a-K562 (n=6 donors); table row '77' [6]: 0.181 µg/mL
binding result [7]: no binding (tested: up to 100 µg/ml)
binding result [8]: no binding (tested: up to 100 µg/ml)
binding result [9]: no binding (tested: up to 100 µg/ml)

B4: 116 (VR12117) (antibody, V domains shown)
VH: QSVEESGGRLVTPGTPLTLTCTVSGFSLSNYAMSWVRQAPGKGLEWIGIIYTTGFTYYASWVKGRFTISKTSTTVDLKITSPTTEDTATYFCARGLATYVSPPTRLDLWGQGTLVTVSS
VL: AQVLTQTPSPVSAAVGGTVTINCQASQSIYNSKNLAWYQQKPGQPPKLLIYSASTLASGVPSRFKGSGSGTQFTLTISDLECDDAATYYCQGEFSCSSVDCATFGGGTEVVVK
notes: also called OX116
IC50 of inhibition of the polyclonal T cell IFNγ ELISpot response to CD1a-K562 (n=6 donors) [6]: 0.141 µg/mL
binding result [7]: no binding (tested: up to 100 µg/ml)
binding result [8]: no binding (tested: up to 100 µg/ml)
binding result [9]: no binding (tested: up to 100 µg/ml)

Other lines, results leading:

IC50 of inhibition of the polyclonal T cell IFNγ ELISpot response to CD1a-K562 (n=6 donors) [2]: 1.97 µg/mL
Molecule: OKT6 (antibody)

IC50 of inhibition of the polyclonal T cell IFNγ ELISpot response to CD1a-K562 (n=6 donors) [2]: 6960 µg/mL
CD1a+ gate (percent of plotted cells) [4]: 84.9%
CD1a+ gate (percent of plotted cells) [5]: 87.4%
Molecule: SK9 (antibody)

Reference: patent US20240383986A1 (OXFORD UNIVERSITY INNOVATION, published 2024)
